From the nanobody polyreactivity screen of Harvey et al. (2022)

Test: yeast display, Sf9 membrane polyspecificity reagent, FACS + sequencing; frameworks hold sequencing errors
How it was run: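 Genes from sorted yeast were amplified by colony PCR, read by MiSeq 2 × 250 sequencing and filtered on CDR length. These cells carried a synthetic nanobody library in Saccharomyces cerevisiae BJ5465 and were sorted by FACS into low and high (top ~1%) gates on anti-HA and streptavidin fluorescence. Polyreactivity is labelled according to the gate of origin.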

Sequence	polyreactivity (PSR sort gate)
QVQLVESGGGLVQAGGSLRLSCAASGLMFSYYAMGWYRQAPGKERELVAAISWNGGSTYYADSVKGRFTISRDNAKNTVYLQMNSLKPEDTAVYYCAVRLDLGWYYYWGQGTQVTVSS	high polyreactivity
QVQLVESGGGLVQAGGSLRLSCAASGLNCKTYTMGWDRQAPGKEREFVAAITTSGGSTYYADSVKGRFTISRDNAKNTVYLQMNSLKPEDTAVYYCDAVWCKSFQGSSYGMNYWGQGTLVTVSS	high polyreactivity
QVQLVESGGGLVQAGGSLRLSCAASGLNFRRNAMRWYRQAPGKERELVAVIDRGGRTNYADSVKGRFTISRDNAKTTVYLQMNSLKPEDTAVYYCAKRYASTSGYWGQGTQVTVSS	high polyreactivity
QVQLVESGGGLVQAGGSLRLSCAASGLPFKSNAMGWYRQAPGKERELVASISKRGGTTYYADSVKGRFTISRDNAKNTVYLQIKSLKPEDTAVYYCAAQSRATTYSWWTGSDYWGQGTEVTVSS	high polyreactivity
QVQLVESGGGLVQAGGSLRLSCAASGLSLQYYAMGWYSQAPGKDRELVAAISSRGVSTYYADSVKGRFTISRDNAKNTVYLQMNSLKPEETAVDYCNARQWRFGFVARGGKYNYWGQGTQVTVSS	high polyreactivity
QVQLVESGGGLVQAGGSLRLSCAASGLSSLRMLWDGLDRRLGKKGSWLPLITSGGDSTNYADSVKGRFTISRDNAKNTVYLQMNSLKPEDTAVYYCAADLDYPYGYWGQGTQVTVSS	low polyreactivity
QVQLVESGGGLVQAGGSLRLSCAASGLTCSRYAMGWYRQAPGKERELVASISQGGGSTYYADSVKGRFTISRDNAKNTVYLQMTSLKPEDTAVYYCAASWYYSLQRYGYWGQGTQVTVSS	high polyreactivity
QVQLVESGGGLVQAGGSLRLSCAASGLTCSYYAMGWYRQAPGQERELVAAISITGSTNYADSVKGRFTISRDNAKNTVYLQMNSLKPEDTAVYYCAARVRSGTGVGFDYWGQGTQVTVSS	high polyreactivity
QVQLVESGGGLVQAGGSLRLSCAASGLTDVRYAMGWYRQAPGKEREFVAAINWRGTRTYADSVKGRYTISRDNAKNTVYLQMNSLKPEDTAVYYCAARTLYFSKYVYWGQGTQVTVSS	high polyreactivity
QVQLVESGGGLVQAGGSLRLSCAASGLTFADYAMGWYRQAPGKERELVAAISSSDTSTYYADSVKGRFTISRDNAKNTVYLQMNSLKPEDTAVYYCAADEGYVWPYYGWGFGKYDYWGQGTQVTVSS	low polyreactivity
QVQLVESGGGLVQAGGSLRLSCAASGLTFAINTMGLNRQAPGKESELVAAITGSGGSTYYADSVKGRFTISRDNAKYTVYLQMKSLKPEDTAVYYCAAELLYVQGYAMDFWGQGTQVTVSS	low polyreactivity
QVQLVESGGGLVQAGGSLRLSCAASGLTFARNAMGWYRQAPGKERELVAAISSRGGSTYYADSVKGRFTISRDNAKNTVYLQMNSLKPEDTAVYYCATSQVLRRDRYDYWGQGTQVTVSS	high polyreactivity
QVQLVESGGGLVQAGGSLRLSCAASGLTFAVYAMGWYRQAPGKVRELVAAITYSGSRTYYADSVKGRFTISRDNAKNTVYLQMNSLKPEVTAVYYCNALYRRDIKFYYWGQGTQVTVSS	high polyreactivity
QVQLVESGGGLVQAGGSLRLSCAASGLTFAYYAMGWYSQAPGKEREMVASINSGGSTNYADSVKGRFTISRDNAKNTVYLLMNSLKPEDTAVYYCAADWATWWYTYDFWGQGTQVTVSS	high polyreactivity
QVQLVESGGGLVQAGGSLRLSCAASGLTFAYYVMGWYRQAPGKERELVATITRGGDTNYADSVKGRFTISRDNAKNTVYLQINSLKPEDTAVYYCAAGSYRDRTFAYNYWGQGTQVTVSA	high polyreactivity
QVQLVESGGGLVQAGGSLRLSCAASGLTFDANAMGWYRQAPGKERELVATITSGGSTNYADSVKGRFTISRDNAKNTVYLQMNSLKPEDTAVYYCARGTSTGTYYWYGYWGHGTQVTVSS	low polyreactivity
QVQLVESGGGLVQAGGSLRLSCAASGLTFDVYTMVWYRQAPGKERELVATISETYYADSVKGRFTISRDNAKNTVYLQMNSLKPEDTAVYYCAANGFKAQYRDIVYDYGYWGQGTQVTVSS	low polyreactivity
QVQLVESGGGLVQAGGSLRLSCAASGLTFDYNAMGWYRQAPGKERELVAAITSGGSTKYADSVKGRFTISRDNAKNTVYLQMNSLKPEDTAVYYCAATAYVWYYLSYTYYYWGQGTQVTVSS	low polyreactivity
QVQLVESGGGLVQAGGSLRLSCAASGLTFDYYAMGWYRQAPGKERELVAAISISGDRTYYADSVKGRFTISRDNAKNTVYLQMNSLKPEDTAVYYCNARYPGSFRDDYWGQGTQVTVSS	high polyreactivity
QVQLVESGGGLVQAGGSLRLSCAASGLTFFGYAMGWYRQAPGKERELVAPISSSGTRTYYADSVKGRFTISRDNAKNTVYLQMNSLKPEDTAVYYCATVRYQEYDYWGQGTQVTVSS	high polyreactivity
QVQLVESGGGLVQAGGSLRLSCAASGLTFFPNVMGWYRQAPGKERELVAAISRSGDRTFYADSVKGRFTISRDNAKNTVYLQMNSLKPEDTAVYYCAADSGSSRSRRGYEYWGQGTQVTVSS	high polyreactivity

Sequence	polyreactivity (PSR sort gate)
QVQLVESGGGLVQAGGSLRLSCAASGLTFGDYAMGWYRQAPGKEREFVAAISSSTGRTYYADSVKGRFTISRDNAKNTVYLQMNSLKPEDTAVYYCAVRYIYPSHYGYDYWGQGTQVSVSS	low polyreactivity
QVQLVESGGGLVQAGGSLRLSCAASGLTFGDYTMGWYRQAPGKERELVAAITWSGASTYSADSVKGRFTISRDNAKNTVYLQMNSLKPEDTAVYYCAAERTPSYRAYDYWAQGTQVTVSS	low polyreactivity
QVQLVESGGGLVQAGGSLRLSCAASGLTFGFYAMGWYRQAPGKERELVAGISNGGSTNYADSVKGRFTISRDNAKNTVYLQMNSLKPEDTAVYYCAARLYARRLYDYWGQGTQVTVSS	low polyreactivity
QVQLVESGGGLVQAGGSLRLSCAASGLTFGGYAMGWYRQAPGKERELVAAISRSGGSTYYADSVKGRFTISRDNAKNTVYLQMNSLQPEDTAVYYCNGGRGTKYDYWGQGTQVTVSS	low polyreactivity
QVQLVESGGGLVQAGGSLRLSCAASGLTFGGYVMGWYRPAPGKERELVAAISWSGTRTYYADSVKGRFTISRDNAKNTVYLQMNSLKPEDTAVYYCAARVKSYNRGYYWGQGTQVTVSS	high polyreactivity
QVQLVESGGGLVQAGGSLRLSCAASGLTFGHYAMGWYRQAPGKERELVATISSRGVSTRYADSVKGRFTISRDTAKNTVYLQMNSLKPEDTAVYYWHARDYTWGKYYSSKIGYYYWGQGTQVTVSS	high polyreactivity
QVQLVESGGGLVQAGGSLRLSCAASGLTFGIYTMGWYRQAPGKERELVAAINWIGTRTYYADSVKGRFTLSRDNAKNTVYLQMNSLKPEDTAVYYCATVIGYTKRKYDYWGQGTQVTVSS	high polyreactivity
QVQLVESGGGLVQAGGSLRLSCAASGLTFGLYAMGWYRQAPGIERELVAGITAGGRTYYADSVKGRFTISRDNAKNTVYLQMNSLKPEQTAVYYCATVNYRSGRGYRRVYTAYYYWGQGTQVTVSS	low polyreactivity
QVQLVESGGGLVQAGGSLRLSCAASGLTFGNYAMGWYRQAPGKERELVAAISWGGGITYYADSVKGRFTISRDNAKNTVYLQMNSLKPEDTAVYYCAADVYFKSTPEYLYDYWGQGTQVTVSS	low polyreactivity
QVQLVESGGGLVQAGGSLRLSCAASGLTFGPNAMGWYRQAPGKERELVAAITKSGGSTYYADSVKGRFTISRDNAKNTVYLQMNSLKPEDTAVFYCAARAGYKVFGYWGQGTQVTVSS	high polyreactivity
QVQLVESGGGLVQAGGSLRLSCAASGLTFGPYAMGWYRQAPGKERELVAAISLSDTDTYYAASVKGRFTISRDNAKNTGYLQMNSLKPEDTAVYYCAAEDGGLYDYWGQGTQVTVSA	high polyreactivity
QVQLVESGGGLVQAGGSLRLSCAASGLTFGRNAMGWYRQAPGKERELVAAISQSGDRTYYADSVKGRFTISRDNAKNTVYLQMNSLKPEDTAVYYCNAVSSRGWYDYWGQGTQVTLSS	high polyreactivity
QVQLVESGGGLVQAGGSLRLSCAASGLTFGRNAMGWYRQAPGKERELVAAISRSGGRTSYADSVKGRFTISRDNAKNTVYLQMNSLKPEDTAVYYCAARSDVYTHDYWGQGTQVTVSS	high polyreactivity
QVQLVESGGGLVQAGGSLRLSCAASGLTFGRNAMGWYRQAPGKERELVAAITFNGGSTYYADSVKGRFTISRDNAKNTVYLQMNSLKPEDTAVYYCAARLWRRSRFDYWGQGTQVTVSS	high polyreactivity
QVQLVESGGGLVQAGGSLRLSCAASGLTFGVYAMGWYRQAPGKERELVASIRSGGSTYYADSVKGRFTISRDNAKNTVYLQMNSLKPEDTAVYYCAKGTFDLHYRKRYNYWGQGTQVTVSS	low polyreactivity
QVQLVESGGGLVQAGGSLRLSCAASGLTFGWYTMGWYRQAPGKERELVAAISWSGGSTYYADSVKGRFTISRDNAKNTVYLQMNSLKPEDTAVYYCAADQSTVLDVGSWGQGTQVTVSS	low polyreactivity
QVQLVESGGGLVQAGGSLRLSCAASGLTFGWYTMGWYRQAPGKERELVADITWSGGSTYYADSVKGRFTISRDNAKNTVYLQMNSLKPEDTAVYYCAVRYFVIPWYAYDYWGQGTQVTVSS	low polyreactivity
QVQLVESGGGLVQAGGSLRLSCAASGLTFGYNAMGWYRQAPGKERELVAAITYGGGRTYYADSVKGRFTISRDNAMNTVYLQMNSLKPEDPAVYYCNVVWKAYAEYDYWGQGTQVTVSS	high polyreactivity
QVQLVESGGGLVQAGGSLRLSCAASGLTFGYNAMGWYRQAPGNERELVATISYSGGRTYYADSVKGRFTISRDNAKTTVYLQMNSLKPEDTAVYDCATRQRHWSGEFDYWGQGTQVTVSS	high polyreactivity
QVQLVESGGGLVQAGGSLRLSCAASGLTFHAYAMGWYRQAPGKEREFVAAITRSGSSTSYAYSVKGRFTISRDNAKNTVYLQMNSLKPEDTAVYYCAAQGSRKYRNDYWGQGTQVTVSS	high polyreactivity
